Reference: patent US20250235479A1 (INNOBATION BIO, published 2025)
One block for each binder: values may come before it.

Legend:
[1] = molecular target: T1, CD22 expressed on cells (U2932, NALM6, K562/CD22+ cells) (UniProt P20273 20-847, limits assumed); assay: flow cytometry on U2932 cells expressing CD22
T1 construct: whole, on cells; the cell lines are human lines; also called cells expressing CD22
T1 sequence (looked up): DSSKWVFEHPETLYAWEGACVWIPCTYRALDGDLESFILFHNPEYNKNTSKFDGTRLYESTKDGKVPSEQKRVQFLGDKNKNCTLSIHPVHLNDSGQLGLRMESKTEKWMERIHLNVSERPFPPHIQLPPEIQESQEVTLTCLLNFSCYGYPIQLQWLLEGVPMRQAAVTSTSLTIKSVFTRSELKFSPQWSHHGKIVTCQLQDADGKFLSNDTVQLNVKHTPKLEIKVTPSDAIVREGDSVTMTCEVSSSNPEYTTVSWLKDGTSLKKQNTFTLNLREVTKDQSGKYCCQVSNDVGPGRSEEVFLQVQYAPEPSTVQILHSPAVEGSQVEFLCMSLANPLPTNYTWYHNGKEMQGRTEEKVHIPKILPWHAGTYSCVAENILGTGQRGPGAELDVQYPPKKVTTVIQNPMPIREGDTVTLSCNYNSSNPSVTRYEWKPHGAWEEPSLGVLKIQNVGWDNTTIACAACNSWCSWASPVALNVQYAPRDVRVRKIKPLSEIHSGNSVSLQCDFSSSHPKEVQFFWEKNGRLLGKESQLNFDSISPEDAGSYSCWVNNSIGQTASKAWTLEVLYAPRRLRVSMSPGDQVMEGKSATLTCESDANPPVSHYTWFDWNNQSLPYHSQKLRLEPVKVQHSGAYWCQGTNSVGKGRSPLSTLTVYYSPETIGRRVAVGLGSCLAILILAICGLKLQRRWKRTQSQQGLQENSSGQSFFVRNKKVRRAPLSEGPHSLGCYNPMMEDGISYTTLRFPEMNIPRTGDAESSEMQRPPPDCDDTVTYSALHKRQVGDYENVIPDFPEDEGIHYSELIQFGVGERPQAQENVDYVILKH

[2] = molecular target: T2, CD22 protein (ACRObiosystems Inc., cat #CD2-H52H8, USA) (UniProt P20273 20-687); assay: ELISA screening of hybridoma clones
T2 construct: Named as the immunogen
T2 sequence (looked up): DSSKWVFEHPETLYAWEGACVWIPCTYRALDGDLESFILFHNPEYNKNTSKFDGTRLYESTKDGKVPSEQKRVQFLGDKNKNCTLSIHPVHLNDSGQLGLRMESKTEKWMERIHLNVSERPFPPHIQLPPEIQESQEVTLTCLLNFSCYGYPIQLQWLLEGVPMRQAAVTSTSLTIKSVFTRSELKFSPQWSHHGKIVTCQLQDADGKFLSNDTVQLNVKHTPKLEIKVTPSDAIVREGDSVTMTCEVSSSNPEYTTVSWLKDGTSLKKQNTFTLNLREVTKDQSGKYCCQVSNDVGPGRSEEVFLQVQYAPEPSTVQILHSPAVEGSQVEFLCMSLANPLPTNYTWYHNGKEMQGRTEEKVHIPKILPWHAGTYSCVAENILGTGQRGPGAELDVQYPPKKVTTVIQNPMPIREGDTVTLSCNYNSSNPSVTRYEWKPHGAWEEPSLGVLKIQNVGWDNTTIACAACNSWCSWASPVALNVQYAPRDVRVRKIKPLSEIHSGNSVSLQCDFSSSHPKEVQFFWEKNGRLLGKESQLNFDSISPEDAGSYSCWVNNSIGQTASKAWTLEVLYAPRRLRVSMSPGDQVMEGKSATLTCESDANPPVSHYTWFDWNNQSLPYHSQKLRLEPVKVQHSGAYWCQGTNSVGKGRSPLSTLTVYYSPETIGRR
Description: A limiting dilution method was used to select a hybridoma that produces an antibody binding to CD22 from among the proliferated hybridomas. First, the number of cells was reduced to 1 cell or less per […], and then it was confirmed by ELISA whether an antibody obtained from a clone proliferated from one cell bound to CD22, and a clone binding to CD22 was selected. The above process was repeated three times to select hybridomas that produced the antibody binding to CD22. The antibody binding to CD22 was obtained in this manner.

- binding result [1]: binds
- binding result [2]: binds
B1: 2G1 antibody (mouse anti-CD22 antibody) (antibody, V domains shown)
VH: EVQLQESGPGLVAPSQSLSITCTVSGFSLTSYDISWIRQPPGKGLEWLGVIWTGGGTNYNSAFMSRLSISKDNSKSQVFLKMNSLQTDDTAIYYCVPHYYGYAMDYWGQGTSVTVSS
VL: DIVLTQSPSSLSASLGGKVTITCKASQDINKYIAWYQHKPGKGPRLLIHYTSTLQPGIPSRFSGSGSGRDYSFSISNLEPEDIATYYCLQYDNLLTFGAGTKLELK
notes: Obtained from a mouse hybridoma; also called mouse 2G1 antibody

- binding result [1]: binds
B2: humanized anti-CD22 antibody 2G1(V4) (antibody, V domains shown)
VH: EVQLQESGPGLVKPSQTLSLTCTVSGFSLTSYDISWIRQPPGKGLEWLGVIWTGGGTNYNSALKSRVTISKDNSKSQVSLKLSSVTAADTAVYYCVPHYYGYAMDYWGQGTTVTVSS
VL: EIVLTQSPATLSLSPGERATLSCRASQDINKYIAWYQQKPGQAPRLLIHYTSTRQTGIPARFSGSGSGRDYTLTISSLEPEDFAVYYCLQYDNLLTFGGGTKLEIK
notes: CDR-grafted humanized form of 2G1

- binding result [1]: binds
B3: humanized anti-CD22 antibody 2G1(V12) (antibody, V domains shown)
VH: EVQLKESGPVLVKPTETLTLTCTVSGFSLTSYDISWIRQPPGKALEWLGVIWTGGGTNYNSALKSRLTISKDNSKSQVVLTMTNMDPVDTATYYCVPHYYGYAMDYWGQGTTVTVSS
VL: B2 VL
notes: as for B2
